In article PMC6041257:

Target: SUFU (UniProt Q9UMX1)
Test: co-immunoprecipitation (assumed)
Conditions: reference: GLI1-WT; sites S201,S204,S243

GLI1 (from UniProt P08151) GLI1-S201/204/243A
binding against the reference: weaker
